{
  "source": "the nanobody polyreactivity screen of Harvey et al. (2022)",
  "data": [
    {"experiment": "yeast display, Sf9 membrane polyspecificity reagent, FACS + sequencing; frameworks hold sequencing errors", "method_in_brief": "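Sorting gates, low and high (top ~1%), were placed on anti-HA fluorescence to track expression and on streptavidin fluorescence to track reagent binding. A clone's polyreactivity label is taken from the gate it came out of. The reagent was 10% biotinylated, detergent-solubilized Sf9 membrane, applied for 1 hour at 4 °C to galactose-induced yeast display cells.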", "values": [
      {"sequence": "QVQLVESGGGLVQAGGSLRLSCAASGSIFSPYDMGWYRQAPGKERELVASITWRRGNTYYADSVKGRFTISRDNAKNTVYLQMNSLKPEDTAVYYCAATRGAQTPQTRKKRGFDYWGQGTQVTVSS", "polyreactivity (PSR sort gate)": "low polyreactivity"},
      {"sequence": "QVQLVESGGGLVQAGGSLRLSCAASGSIFSPYTMGWYRQAPGKEREFVAAIRWTTGSTYYADSVKGRFTISRDNAKNTVYLQMNSLKPEDTAVYYCAADPSYRSRLFRSYEYDYWGQGTQVTVSS", "polyreactivity (PSR sort gate)": "high polyreactivity"},
      {"sequence": "QVQLVESGGGLVQAGGSLRLSCAASGSIFSRNAMGWYRQAPGKEREFVARISWSSTSTNYADSVKGRFTISRDNAKNTVYLQMISLKPEVTAVDYCSADFRGDRRFDYWGQGTQVTVSS", "polyreactivity (PSR sort gate)": "low polyreactivity"},
      {"sequence": "QVQLVESGGGLVQAGGSLRLSCAASGSIFSRNAMGWYRQAPGKEREFVARISWSSTSTNYADSVKGRFTISRDNSKNTVFLLINSLKPEDTAVYYCAADFRGDRRFDYWGQGTQVTVSS", "polyreactivity (PSR sort gate)": "low polyreactivity"},
      {"sequence": "QVQLVESGGGLVQAGGSLRLSCAASGSIFSRYAMGWYRQSPGKERELVAAISQRAGSTYYADSVKGRFTISRDNAKNTVYLQMNSLKPEDTAVYYCAARRRGRKERGEDYWGQGTQVTVSS", "polyreactivity (PSR sort gate)": "high polyreactivity"},
      {"sequence": "QVQLVESGGGLVQAGGSLRLSCAASGSIFSSNAMGWYRQAPGKERELVAAIDYSGGRTYYADSVKGRFTISRDNAKNTVYLQMNSLKPEDTAVYYCAKLIPVHSRYDYWGQGTQVTVSS", "polyreactivity (PSR sort gate)": "low polyreactivity"},
      {"sequence": "QVQLVESGGGLVQAGGSLRLSCAASGSIFSSNAMGWYRQAPGKERELVAAITGSDGSTYYADSVKGRFTISRDNAKNTVYLQMNSLKPEDTAVYYCAAVGRYYYFDGFYYWGQGTQVTVSS", "polyreactivity (PSR sort gate)": "low polyreactivity"},
      {"sequence": "QVQLVESGGGLVQAGGSLRLSCAASGSIFSSNTMGWYRQAPGKERELVAAITSGGTTYADSVKGRFTISRDNAKNTVYLQMNSLKPEDTAVYYCAARYYIHRGYDYDYWGQGTQVTVSS", "polyreactivity (PSR sort gate)": "high polyreactivity"},
      {"sequence": "QVQLVESGGGLVQAGGSLRLSCAASGSIFSSYAMGWYRPAPGKERELVAAITRTGGRTYYADSVKGRFTISRDNAKNTVYLQMNSLKPEDTAVYYCAAKQVSRGVAAYDYWGQGTQVTVSS", "polyreactivity (PSR sort gate)": "high polyreactivity"},
      {"sequence": "QVQLVESGGGLVQAGGSLRLSCAASGSIFSSYAMGWYRQAPGKERELVAAITTRGDSTRYADSVKGRFTISRDNAKNTVYLQMNSLKPEHTAVYYCNARYRDPYWDSGYWGQGTQVTVSS", "polyreactivity (PSR sort gate)": "high polyreactivity"},
      {"sequence": "QVQLVESGGGLVQAGGSLRLSCAASGSIFSSYAMGWYRQAPGKERELVASISSGGSTNYADSVKGRFTISRDNAKNTVYLQMNSLKPEDTAVYYCNVDLYNWRGDSTGYDYWGQGTQVTVSS", "polyreactivity (PSR sort gate)": "low polyreactivity"},
      {"sequence": "QVQLVESGGGLVQAGGSLRLSCAASGSIFSSYTMGWYRPAPGKERELLAAISSTGSTYYADSVKGRFTISRDNAKNTVYLQMNSLKPEDTAVYYCAARGWYWQQYKGHTRYDYWGQGTQVTVSS", "polyreactivity (PSR sort gate)": "high polyreactivity"},
      {"sequence": "QVQLVESGGGLVQAGGSLRLSCAASGSIFSTNAMGWYRQAPGKEWELVAVITGIGGITYYADSVKGRFTISRDNAKNTDYLQMNSLKPEDTAVYYCAADPISEFYWGVKDRYDYWGQGTQVTVSS", "polyreactivity (PSR sort gate)": "low polyreactivity"},
      {"sequence": "QVQLVESGGGLVQAGGSLRLSCAASGSIFSTNGMGWYRQAPGKERELVAAISTGGRTYYADSVKGRFTISRDNAKNTVYLQMNSLKPEDTAVYYCAKRFGYRSTEILDYWGQGTQVTVSS", "polyreactivity (PSR sort gate)": "low polyreactivity"},
      {"sequence": "QVQLVESGGGLVQAGGSLRLSCAASGSIFSTYAMGWSRQAPGKERELVAAINRSGGSTTYADSVKGRCTISRDNAKNTVYLQMNSLKPEDTAVYYCAKAFRGHYWGQGTQVSVSS", "polyreactivity (PSR sort gate)": "high polyreactivity"},
      {"sequence": "QVQLVESGGGLVQAGGSLRLSCAASGSIFSTYAMGWYRQAPGKERELVAAITTSGGRTYYADSVKGRFTISRDNAKNTVYVQMNSLKPEETAVYYCNAVRGGRYGLDYWGQGTQVTVSS", "polyreactivity (PSR sort gate)": "high polyreactivity"},
      {"sequence": "QVQLVESGGGLVQAGGSLRLSCAASGSIFSTYAMGWYRQAPGKERELVASINYSGGSTYYADSVKGRFTISRDNAKNTVYLQMNSLKPEDTAVYYCNTGPFVGFDYWGQGTQVTVSS", "polyreactivity (PSR sort gate)": "low polyreactivity"},
      {"sequence": "QVQLVESGGGLVQAGGSLRLSCAASGSIFSTYTMGWYRQAPGKERELVAGISKSGGSTYYADSVKGRFTISRDNAKNTVYLQMNSLKPEDTAVYYCAAPVPKTDKLLRMYYWGQGTQVTVSS", "polyreactivity (PSR sort gate)": "high polyreactivity"},
      {"sequence": "QVQLVESGGGLVQAGGSLRLSCAASGSIFSTYVMGWYRPAPGKERELVAAIRWRATSTFYADSVKGRFTISRDNAKNTVYLQMNSLKPEDTAVYYCNRYHRTSWRAKYDYWGQGTQVTVSS", "polyreactivity (PSR sort gate)": "high polyreactivity"},
      {"sequence": "QVQLVESGGGLVQAGGSLRLSCAASGSIFSTYVMGWYRQAPGKERELVAAITVSVGSTYYADSVKGRFTISRDNAKNTVYLQMNSLKPEDTAVYYCAAYGGTGYPFDAYYHDYDYWGQGTQVSVSS", "polyreactivity (PSR sort gate)": "low polyreactivity"},
      {"sequence": "QVQLVESGGGLVQAGGSLRLSCAASGSIFSVNAMGWYRQAPGKERELVASINFRGGRTYYADSVKGRFTISRDNAKNTVYLQMNSLKPEDTAVYYCAAVISQTDTGYGPSFRVYYWGQGTQVTVSS", "polyreactivity (PSR sort gate)": "high polyreactivity"},
      {"sequence": "QVQLVESGGGLVQAGGSLRLSCAASGSIFSVYVMGWYRQAPGKERELVAAISWSDSDTYYADSVKGRFTISRDNAKNTVYLQMNSLKPEDTAVYYCAAETFDYADYIANGSGEYDYWGQGTQVTVSS", "polyreactivity (PSR sort gate)": "high polyreactivity"},
      {"sequence": "QVQLVESGGGLVQAGGSLRLSCAASGSIFSWYAMGWYRQAPGKERELVAAISGITGSTYYADSVKGRFTISRDNAKNTVYLQMNSLKPEDTAVYYCRALAGYASGMDYWGQGTQVTVSS", "polyreactivity (PSR sort gate)": "high polyreactivity"},
      {"sequence": "QVQLVESGGGLVQAGGSLRLSCAASGSIFSWYAMGWYRQAPGKERELVAAISNAGRTYYADSVKGRFTISRDNAKNTVYLQMNSLKPEDTAVYYCAAAGPRQGNYGGYEYWGQGTQVTVSS", "polyreactivity (PSR sort gate)": "high polyreactivity"},
      {"sequence": "QVQLVESGGGLVQAGGSLRLSCAASGSIFSYDAMGWYRLAPGKERELVAVINSGGRTNYADSVKGRFTISRDNAKNTVYLQMNRLKPEDTAVYYCAAQGYFVDRAGRYDRGDYWGQGTQVTVSS", "polyreactivity (PSR sort gate)": "high polyreactivity"},
      {"sequence": "QVQLVESGGGLVQAGGSLRLSCAASGSIFSYNAMGWSRQAPGNERELVARISYSGGSTYYADSVKGRFTISRDNAKNTVYLQMNSLKPEDTAVYYCAKRAYGWPYDYWGQGTQVTVSS", "polyreactivity (PSR sort gate)": "high polyreactivity"},
      {"sequence": "QVQLVESGGGLVQAGGSLRLSCAASGSIFSYNVMGWYRPAPGKERELVAAITQSGTSTYYADSVKGRFTISRDNAKNTVYLQMNSLKPEDTAVYYCAVDWYSAYGGYYWSQYDYWGQGTQVTVSS", "polyreactivity (PSR sort gate)": "low polyreactivity"},
      {"sequence": "QVQLVESGGGLVQAGGSLRLSCAASGSIFSYYAMGWSSQAPGKERELVAAISKRGASTYYADSVKGRFSISRDIAKNTVYLQMNSLKPEDTAVYYCAAYRQGSAYDYWGKGTQVTVSS", "polyreactivity (PSR sort gate)": "high polyreactivity"},
      {"sequence": "QVQLVESGGGLVQAGGSLRLSCAASGSIFSYYAMGWYRQAPGKERELVAAINGGDSTNYADSVKGRFTISRDNAKNTVYLQMNSLKPEDTAVYYCAADNYDAALLFEYYYWGQGTQVTVSS", "polyreactivity (PSR sort gate)": "low polyreactivity"},
      {"sequence": "QVQLVESGGGLVQAGGSLRLSCAASGSIFSYYAMGWYRQAPGKERELVAAISQSGGSTYYADSVKGRFTISRDNAKNTVYLQMNSLKPEDTAVYYCNAVARHTRSKYGSWGQGTQVTVSS", "polyreactivity (PSR sort gate)": "high polyreactivity"},
      {"sequence": "QVQLVESGGGLVQAGGSLRLSCAASGSIFSYYAMGWYRQAPGKERELVAAISRSGVSTYYADSVKGRFTISRDNAKNTVYLQMNSLKPEDTAVYYCNAVFTWPRRKYGYDYWGQGTQVTVSS", "polyreactivity (PSR sort gate)": "high polyreactivity"},
      {"sequence": "QVQLVESGGGLVQAGGSLRLSCAASGSIFSYYAMGWYRQAPGKERELVAAISSRGGSTYYADSVKGRFTISRDNAKKTVYLQMNSLKPEDTAVYYCAADWTSWFGVTYDYWGQGTQVTVSS", "polyreactivity (PSR sort gate)": "high polyreactivity"},
      {"sequence": "QVQLVESGGGLVQAGGSLRLSCAASGSIFSYYAMGWYRQAPGKERELVAAISWSGTSTYYADSVKGRFTISRDNAKNTVYLQMNSLKPEDTAVYYCNAGDNPIFDLGQGTQVTVSS", "polyreactivity (PSR sort gate)": "high polyreactivity"},
      {"sequence": "QVQLVESGGGLVQAGGSLRLSCAASGSIFSYYAMGWYRQAPGKERELVAGISISTGSTYYADSVKGRFTISRDNAKNTVYLQMNSLKPEDNAVYYCAAAQDDGYSQDIYYQLSAYDYWGQGTQVTVSS", "polyreactivity (PSR sort gate)": "low polyreactivity"},
      {"sequence": "QVQLVESGGGLVQAGGSLRLSCAASGSIFSYYAMGWYRQAPGKERELVASITSGGSTNYADSVKGRFTISRDNAKNTVYLQMNSLKPEDTAVYYCNKDGKYHRVLYDYWGQGTQVTVSS", "polyreactivity (PSR sort gate)": "low polyreactivity"},
      {"sequence": "QVQLVESGGGLVQAGGSLRLSCAASGSIFSYYAMGWYRQAPGKERELVAVISSSGGRTYYADSVKGRFTISRDNAKNTVYLQMNSLKPEDTAVYYCAAKYRVFYGFDYWGQGTQVTVSS", "polyreactivity (PSR sort gate)": "high polyreactivity"},
      {"sequence": "QVQLVESGGGLVQAGGSLRLSCAASGSIFSYYDMGWYRQAPGKERELVAGISRGGSTNYADSVKGRFTISRDNAKNTVYLQMNSLKPEDTAVYYCNADQSSRTYPFRRSRRSWLYGYWGQGTQVTVSS", "polyreactivity (PSR sort gate)": "low polyreactivity"},
      {"sequence": "QVQLVESGGGLVQAGGSLRLSCAASGSIFSYYVKGWYRQAPGKERELVAVITDRGGRTYYADSVKGRFTISRDNAKNPVYLQMNSLKPEDTAVYYCNKYIRRYLIYGSWGQGTQVTVSS", "polyreactivity (PSR sort gate)": "high polyreactivity"},
      {"sequence": "QVQLVESGGGLVQAGGSLRLSCAASGSIFTAYAMGWYRQAPGKERELVAAIDDSGDSTYYADSVKGRFTISRDNAKNTVYLQMNSLKPEDTAVYYCKAEYRVNKEYDYWGQGTQVTVSS", "polyreactivity (PSR sort gate)": "low polyreactivity"},
      {"sequence": "QVQLVESGGGLVQAGGSLRLSCAASGSIFTDNAMGWYRQAPGKERELVAGISYNGDNTYYADSVKGRFTISRDNAKNTVYLQMNSLKPEDTAVYYCAAADGIIESDYWGQGTQVTVSS", "polyreactivity (PSR sort gate)": "low polyreactivity"},
      {"sequence": "QVQLVESGGGLVQAGGSLRLSCAASGSIFTFNAMGWYRQAPGKERELVAAISTGGNTYYADSVKGRFTISRDNAKNTVYLQINSLKPEDTAVFYCAAVRRTDGDGKYYYWGQGTQVTVSS", "polyreactivity (PSR sort gate)": "high polyreactivity"},
      {"sequence": "QVQLVESGGGLVQAGGSLRLSCAASGSIFTFYAMGWYRQAPGKERELVAAISSGGRTYYADSVKGRFTISRDNAKNTVYLQMNSLKPEDTAVYYCAASYQQYFYRYALPADYYYWGQGTQVTVSS", "polyreactivity (PSR sort gate)": "high polyreactivity"},
      {"sequence": "QVQLVESGGGLVQAGGSLRLSCAASGSIFTFYAMGWYRQAPGKERELVATINRIGGNTYYADSVKGRFTISRDNAKNSVYLLMKSLKPEETAVYYCAVCPYTRPYYRTFDHWGQGTLVTVSS", "polyreactivity (PSR sort gate)": "low polyreactivity"}
    ]}
  ]
}
